What was measured:
Assay type in all cases: biochemical
MT1-MMP = MT1-MMP (Homo sapiens, UniProt P50281); assay: Peptide substrate hydrolysis kinetics, selectivity between MT1-MMP and MMP-9; details: MT1-MMP substrates
Procedure: (§1) In order to measure the selectivity of individual substrates for one metalloproteinase over another, representative polypeptides from the selected phage were synthesized and their rate of hydrolysis by several matrix metalloproteinases was determined. In some cases these representative polypeptide sequences contained an amino-terminal serine (S) and glycine (G) and/or a carboxyl-terminal threonine (T) and alanine (A) since these residues were used in the construction of the phage substrate library, although one skilled in the art will understand that other amino acid residues could be substituted at these positions. The kinetic parameters of substrate hydrolysis were measured using a fluorescamine incorporation assay that has been described previously (Ding et al., PNAS, 92:7627-7631 (1995); Coombs et al., Chem. and Biol. 5:475-488 (1998); Fields et al., J. Biol. Chem., 262:6221-6226 (1987); Netzel-Arnett., et al. J. Biol. Chem., 266:6747-6755 (1991)).
(§2) Briefly, individual metalloproteinases were incubated with the individual polypeptide substrates at concentrations ranging from 100-800 µM. At selected time points the reactions were stopped by the addition of 1,10 phenanthroline. Polypeptide hydrolysis was determined by the addition of fluorescamine followed by detection at an excitation wavelength of 355 nm and an emission wavelength of 460 nm. The data were transformed to double reciprocal plots (1/[S] vs 1/vi) to determine Km and kcat. In some cases Km and kcat could not be determined individually, but the specificity constant, kcat/Km, was derived by the equation: […] (Netzel-Arnett, supra, and Zumla et al., J. Immunol. Methods 149:69-76 (1992)).
(§3) The selectivity ratio of each polypeptide substrate was calculated by dividing the kcat/Km value for one matrix metalloproteinase by the kcat/Km value for the other matrix metalloproteinases that were tested. […] In many cases the polypeptide substrates are selective for one matrix metalloproteinase compared to several other matrix metalloproteinases.
Polypeptide substrates for Membrane type-Matrix Metalloproteinase 1 (MT1-MMP) were identified using substrate phage display as described for MMP-2 and MMP-9. Synthetic peptides that are analogous to the phage sequences were used to quantitate the level of selectivity between MT1-MMP and MMP-9 (see Table II).

MMP-2 = target: T1, MMP-2 (Homo sapiens, UniProt P08253); assay: Peptide substrate hydrolysis kinetics, fluorescamine incorporation assay (kcat/Km, selectivity ratio); details: MMP-2 substrates
T1 construct: the cDNA encoding the catalytic domain of MMP-2 was generated by PCR; made in house; host or cells: HEK 293 cells
Procedure: as §1, §2, §3
(§4) The kinetic parameters of substrate hydrolysis were measured using a fluorescamine incorporation assay that has been previously described (Ding et al., PNAS, 92:7627-7631 (1995); Coombs et al., Chem. and Biol. 5:475-488 (1998); Fields et al., J. Biol. Chem., 262:6221-6226 (1987); Netzel-Arnett., et al. J. Biol. Chem., 266:6747-6755 (1991)). Briefly, MMP-2, MMP-9, MMP-7, or MMP-13 were incubated with individual peptide substrates at concentrations ranging from 100-800 μM in 50 mM Tris, pH 7.5, 100 mM NaCl, 10 mM CaCl2, 50 μM ZnCl2. At selected time points the reactions were stopped by the addition of 1,10-phenanthroline. Peptide hydrolysis was determined by the addition of fluorescamine followed by detection at λex 355 nm and λem 460 nm. The data were transformed to double reciprocal plots (1/[S] vs 1/vj) to determine Km and kcat. […] A double recipricol plot of the hydrolysis of peptide B 74 is shown as a representative plot (FIG. 4).

MMP-9 = target: T2, MMP-9 (Homo sapiens, UniProt P14780); assay: Peptide substrate hydrolysis kinetics, fluorescamine incorporation assay (kcat, Km, kcat/Km, selectivity ratio); details: for selectivity ratio: kcat/Km for MMP-9 divided by kcat/Km for MMP-1 / selectivity ratio: kcat/Km for MMP-9 divided by kcat/Km for MMP-7: MMP-9 substrates
T2 construct: a recombinant form of the catalytic domain of MMP-9 expressed in HEK 293 cells; made in house; host or cells: HEK 293 cells
Procedure: as §1, §2, §3, §4
The Michaelis constant (Km) and first-order rate constant of substrate peptide turnover (kcat) were measured by incubating a range of each peptide with MMP-9. Peptide hydrolysis was measured by incorporation of fluorescamine onto newly formed amino-termini as previously described. From these measurements, kcat and Km were derived for each peptide using double-reciprocal plots of 1/[S] vs 1/vj. Among the peptides, the kcat values ranged from 9 s^−1 to 703 and Km values were generally in the high micromolar to low millimolar range.

[1] = hydrolysis by MMP-9, Ala instead of Leu at P1′

T1 sequence (P08253 110-465 limits assumed): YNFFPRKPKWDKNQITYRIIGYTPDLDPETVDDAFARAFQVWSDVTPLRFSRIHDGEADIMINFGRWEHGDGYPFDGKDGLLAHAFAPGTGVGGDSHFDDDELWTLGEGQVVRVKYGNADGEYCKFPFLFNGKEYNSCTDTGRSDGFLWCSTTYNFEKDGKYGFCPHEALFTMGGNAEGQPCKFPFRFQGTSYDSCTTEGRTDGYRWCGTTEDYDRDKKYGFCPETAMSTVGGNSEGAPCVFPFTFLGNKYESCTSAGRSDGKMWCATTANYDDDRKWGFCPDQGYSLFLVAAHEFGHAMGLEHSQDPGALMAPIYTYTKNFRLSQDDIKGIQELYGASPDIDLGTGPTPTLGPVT
T2 sequence (P14780 94-444 limits assumed): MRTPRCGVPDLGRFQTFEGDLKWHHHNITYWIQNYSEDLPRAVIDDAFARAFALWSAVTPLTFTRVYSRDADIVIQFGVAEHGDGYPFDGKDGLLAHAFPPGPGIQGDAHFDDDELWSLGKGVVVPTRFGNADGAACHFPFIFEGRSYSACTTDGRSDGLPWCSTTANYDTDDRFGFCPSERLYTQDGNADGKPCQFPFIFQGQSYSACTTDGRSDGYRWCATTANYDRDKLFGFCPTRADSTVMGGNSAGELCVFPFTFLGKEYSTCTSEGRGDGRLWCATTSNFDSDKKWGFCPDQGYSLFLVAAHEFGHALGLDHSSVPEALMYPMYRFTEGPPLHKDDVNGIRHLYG

| Substance | selectivity ratio: kcat/Km for MMP-2 divided by kcat/Km for MMP-1 (MMP-2) | selectivity ratio: kcat/Km for MMP-2 divided by kcat/Km for MMP-7 (MMP-2) | selectivity ratio: kcat/Km for MMP-2 divided by kcat/Km for MMP-9 (MMP-2) | also measured |
| --- | --- | --- | --- | --- |
| A176: MT1-MMP selective substrate peptide from phage clone A176, sequence S-G-R-S-E-N-I-R-T-A (Table V) (RSENIRT) |  |  |  | selectivity ratio: kcat/Km for MT1-MMP divided by kcat/Km for MMP-9 (MT1-MMP): 73 |
| B96: MT1-MMP selective substrate peptide from phage clone B96, sequence S-G-L-I-S-H-S-I-T-A (Table V) (LISHSITA) |  |  |  | selectivity ratio: kcat/Km for MT1-MMP divided by kcat/Km for MMP-9 (MT1-MMP): 5 |
| C9: MMP-2 selective substrate peptide from phage clone C9, sequence R-S-L-S-R-L-T-A (RSLSRLTA) | 52 | 35 | 198 |  |
| A34: MMP-2 selective substrate peptide from phage clone A34, sequence N-R-Y-S-S-L-T-A (NRYSSLTA) | 24 | 84 | 40 |  |
| A21: MMP-2 selective substrate peptide from phage clone A21, sequence H-M-H-K-A-L-T-A (HMHKALTA) |  |  | 8 |  |
| B74: MMP-2 selective substrate peptide from phage clone B74, sequence E-S-L-A-Y-Y-T-A (ESLAYYTA) | 140 | 354 | 108 |  |
| A13: MMP-2 selective substrate peptide from phage clone A13, sequence G-A-V-S-W-L-L-T (GAVSWLLT) | 28 | 13 | 15 |  |
| B175: MT1-MMP selective substrate peptide from phage clone B175, sequence S-G-R-A-M-H-M-Y-T-A (Table V) (RAMHMYT) |  |  |  | selectivity ratio: kcat/Km for MT1-MMP divided by kcat/Km for MMP-9 (MT1-MMP): 19 |
| A3: MMP-2 selective substrate peptide from phage clone A3, sequence A-K-P-R-A-L-T-A (AKPRALTA) | 14 | 21 | 2 |  |
| C15: MMP-9 selective substrate peptide from phage clone C15, sequence S-G-K-G-P-R-Q-I-T-A (Table V) (KGPRQITA) |  |  |  | selectivity ratio: kcat/Km for MMP-9 divided by kcat/Km for MMP-1 (MMP-9): 12; selectivity ratio: kcat/Km for MMP-9 divided by kcat/Km for MMP-7 (MMP-9): 14 |
| A11: MMP-9 selective substrate peptide from phage clone A11, sequence S-G-K-I-P-R-T-L-T-A (Table V) (KIPRTLTA) |  |  |  | selectivity ratio: kcat/Km for MMP-9 divided by kcat/Km for MMP-1 (MMP-9): 3; selectivity ratio: kcat/Km for MMP-9 divided by kcat/Km for MMP-7 (MMP-9): 10 |
| A42: MT1-MMP selective substrate peptide from phage clone A42, sequence S-G-R-I-G-F-L-R-T-A (Table V) (RIGFLRT) |  |  |  | selectivity ratio: kcat/Km for MT1-MMP divided by kcat/Km for MMP-9 (MT1-MMP): 54 |
| B149: MT1-MMP selective substrate peptide from phage clone B149, sequence S-G-A-R-Y-R-W-L-T-A (Table V) (ARYRWLTA) |  |  |  | selectivity ratio: kcat/Km for MT1-MMP divided by kcat/Km for MMP-9 (MT1-MMP): 3 |
| B49: MMP-2 selective substrate peptide from phage clone B49, sequence L-R-L-A-A-I-T-A (LRLAAITA) | 13 | 6 | 14 |  |
| AC-SGKIPRTATA-NH2 (Ac-SGKIPRTATA-NH2) [Clone A11m2] |  |  |  | kcat/Km ratio (MMP-9; hydrolysis by MMP-9): 2,000 M^−1s^−1; effect of substitution on kcat and Km (MMP-9; [1]): deleterious effects on both kcat and Km; reduction of kcat/Km ratio relative to peptide A11 (MMP-9; [1]): ~30 fold |
| B37: MMP-2 selective substrate peptide from phage clone B37, sequence A-N-I-S-D-L-T-A (ANISDLTA) | 58 | 17 | 71 |  |
| A6: MMP-9 selective substrate peptide from phage clone A6, sequence S-G-P-R-A-V-S-T-T-A (Table V) (PRAVST) |  |  |  | selectivity ratio: kcat/Km for MMP-9 divided by kcat/Km for MMP-1 (MMP-9): 5; selectivity ratio: kcat/Km for MMP-9 divided by kcat/Km for MMP-7 (MMP-9): 47 |

From patent US7935785B2, “Selective substrates for matrix metalloproteinases” (Sanford-Burnham Medical Research Institute, priority 2001, dated 2011)
